Test results published in patent publication US20180155451A1 (published 2018).

B1: GpH7-B3 variant S298_11K/GpL16-k0 (antibody, human IgG1, kappa)
heavy: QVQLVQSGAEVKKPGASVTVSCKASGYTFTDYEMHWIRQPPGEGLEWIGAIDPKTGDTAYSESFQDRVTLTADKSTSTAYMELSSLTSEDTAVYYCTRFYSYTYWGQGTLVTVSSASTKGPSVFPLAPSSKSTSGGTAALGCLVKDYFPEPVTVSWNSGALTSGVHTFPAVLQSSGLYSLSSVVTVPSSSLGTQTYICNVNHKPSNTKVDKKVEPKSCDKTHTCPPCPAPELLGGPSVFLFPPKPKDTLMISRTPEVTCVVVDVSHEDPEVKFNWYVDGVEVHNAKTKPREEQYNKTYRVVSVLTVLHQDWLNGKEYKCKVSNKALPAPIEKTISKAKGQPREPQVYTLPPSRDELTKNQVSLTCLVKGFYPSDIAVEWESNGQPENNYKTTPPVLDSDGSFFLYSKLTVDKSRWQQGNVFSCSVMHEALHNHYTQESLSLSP
light: DIVMTQSPLSLPVTPGEPASISCQASESLVHSNRNTYLHWYLQKPGQSPQLLIYKVSNRFSGVPDRFSGSGSGTDFTLKISRVEAEDVGVYYCSQNTHVPPTFGQGTKVEIERTVAAPSVFIFPPSDEQLKSGTASVVCLLNNFYPREAKVQWKVDNALQSGNSQESVTEQDSKDSTYSLSSTLTLSKADYEKHKVYACEVTHQGLSSPVTKSFNRGEC
notes: mutation in both H chains; also called Ho Ab S298_11K; S298K
B2: GpH7-A5/GpH7-B3 variant S267_09D/GpL16-k0 (He Ab) (antibody, human IgG1, kappa)
heavy 1: not shown
heavy 2: not shown
light: B1 light
notes: He Ab: alteration only in the GpH7-B3 chain
B3: GpH7-A5/GpH7-B3 variant K326_16H/GpL16-k0 (He Ab) (antibody, human IgG1, kappa)
heavy 1: not shown
heavy 2: not shown
light: B1 light
notes: as for B2
B4: GpH7-B3 variant S298_01G/GpL16-k0 (antibody, human IgG1, kappa)
heavy: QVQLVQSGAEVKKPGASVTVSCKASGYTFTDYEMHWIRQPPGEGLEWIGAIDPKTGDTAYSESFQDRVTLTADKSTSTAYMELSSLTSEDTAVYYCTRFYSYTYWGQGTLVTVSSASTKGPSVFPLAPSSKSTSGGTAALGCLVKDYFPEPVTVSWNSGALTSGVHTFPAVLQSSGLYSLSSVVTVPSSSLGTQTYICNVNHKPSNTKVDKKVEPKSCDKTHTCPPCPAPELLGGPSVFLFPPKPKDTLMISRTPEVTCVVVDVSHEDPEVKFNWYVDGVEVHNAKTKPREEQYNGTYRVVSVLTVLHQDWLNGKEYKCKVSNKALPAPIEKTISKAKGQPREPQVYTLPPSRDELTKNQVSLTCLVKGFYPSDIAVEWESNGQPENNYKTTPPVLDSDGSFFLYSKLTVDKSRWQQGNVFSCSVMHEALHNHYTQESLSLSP
light: B1 light
notes: mutation in both H chains; also called Ho Ab S298_01G; S298G
B5: GpH7-B3 variant S267_09D/GpL16-k0 (antibody, human IgG1, kappa)
heavy: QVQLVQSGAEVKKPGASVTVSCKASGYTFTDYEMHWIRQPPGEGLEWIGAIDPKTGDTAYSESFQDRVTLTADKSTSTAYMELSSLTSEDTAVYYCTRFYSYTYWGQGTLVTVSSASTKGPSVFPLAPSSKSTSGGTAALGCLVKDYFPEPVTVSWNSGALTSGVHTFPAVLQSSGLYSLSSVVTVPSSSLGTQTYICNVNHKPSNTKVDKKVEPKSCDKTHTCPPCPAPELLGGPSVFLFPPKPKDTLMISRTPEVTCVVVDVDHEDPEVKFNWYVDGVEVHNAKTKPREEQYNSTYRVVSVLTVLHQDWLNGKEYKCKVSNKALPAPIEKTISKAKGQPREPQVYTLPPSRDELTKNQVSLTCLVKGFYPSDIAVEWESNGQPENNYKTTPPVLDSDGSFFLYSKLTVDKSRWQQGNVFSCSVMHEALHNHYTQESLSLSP
light: B1 light
notes: mutation in both H chains; also called Ho Ab S267_09D; S267D
B6: GpH7-A5/GpH7-B3 variant S324_02A/GpL16-k0 (He Ab) (antibody, human IgG1, kappa)
heavy 1: not shown
heavy 2: not shown
light: B1 light
notes: as for B2
B7: GpH7-B3 variant S239_19Q/GpL16-k0 (antibody, human IgG1, kappa)
heavy: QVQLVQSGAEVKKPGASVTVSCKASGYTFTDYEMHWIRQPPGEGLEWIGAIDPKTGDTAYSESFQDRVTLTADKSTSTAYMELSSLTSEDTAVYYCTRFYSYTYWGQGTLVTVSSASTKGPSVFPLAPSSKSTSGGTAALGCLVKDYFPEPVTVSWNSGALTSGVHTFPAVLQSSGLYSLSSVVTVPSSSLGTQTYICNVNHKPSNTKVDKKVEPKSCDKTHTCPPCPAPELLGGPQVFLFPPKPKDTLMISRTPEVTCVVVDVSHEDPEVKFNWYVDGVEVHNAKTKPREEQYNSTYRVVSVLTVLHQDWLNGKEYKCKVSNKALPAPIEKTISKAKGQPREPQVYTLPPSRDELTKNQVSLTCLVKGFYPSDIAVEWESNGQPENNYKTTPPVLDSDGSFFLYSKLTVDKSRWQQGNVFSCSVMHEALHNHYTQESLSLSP
light: B1 light
notes: mutation in both H chains; also called Ho Ab S239_19Q; S239Q
B8: GpH7-A5/GpH7-B3 variant S267_01G/GpL16-k0 (He Ab) (antibody, human IgG1, kappa)
heavy 1: not shown
heavy 2: not shown
light: B1 light
notes: as for B2
B9: GpH7-A5/GpH7-B3 variant P271_13S/GpL16-k0 (He Ab) (antibody, human IgG1, kappa)
heavy 1: not shown
heavy 2: not shown
light: B1 light
notes: as for B2
B10: GpH7-A5/GpH7-B3 variant S239_09D/GpL16-k0 (He Ab) (antibody, human IgG1, kappa)
heavy 1: not shown
heavy 2: not shown
light: B1 light
notes: as for B2
B11: GpH7-A5/GpH7-B3 variant S267_03V/GpL16-k0 (He Ab) (antibody, human IgG1, kappa)
heavy 1: not shown
heavy 2: not shown
light: B1 light
notes: as for B2
B12: GpH7-B3 variant S298_06M/GpL16-k0 (antibody, human IgG1, kappa)
heavy: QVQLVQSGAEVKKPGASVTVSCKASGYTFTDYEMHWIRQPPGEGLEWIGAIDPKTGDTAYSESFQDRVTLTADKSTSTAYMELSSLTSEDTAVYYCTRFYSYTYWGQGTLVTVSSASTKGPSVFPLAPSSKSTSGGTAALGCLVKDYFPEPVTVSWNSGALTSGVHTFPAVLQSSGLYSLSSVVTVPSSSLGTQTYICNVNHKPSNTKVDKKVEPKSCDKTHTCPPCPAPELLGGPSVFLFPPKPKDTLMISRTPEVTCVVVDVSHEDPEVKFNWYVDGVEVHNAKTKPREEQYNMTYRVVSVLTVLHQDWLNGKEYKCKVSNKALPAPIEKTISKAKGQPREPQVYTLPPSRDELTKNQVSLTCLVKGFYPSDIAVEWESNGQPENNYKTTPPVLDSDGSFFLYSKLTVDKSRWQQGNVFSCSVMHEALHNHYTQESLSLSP
light: B1 light
notes: mutation in both H chains; also called Ho Ab S298_06M; S298M
B13: GpH7-B3 variant S267_02A/GpL16-k0 (antibody, human IgG1, kappa)
heavy: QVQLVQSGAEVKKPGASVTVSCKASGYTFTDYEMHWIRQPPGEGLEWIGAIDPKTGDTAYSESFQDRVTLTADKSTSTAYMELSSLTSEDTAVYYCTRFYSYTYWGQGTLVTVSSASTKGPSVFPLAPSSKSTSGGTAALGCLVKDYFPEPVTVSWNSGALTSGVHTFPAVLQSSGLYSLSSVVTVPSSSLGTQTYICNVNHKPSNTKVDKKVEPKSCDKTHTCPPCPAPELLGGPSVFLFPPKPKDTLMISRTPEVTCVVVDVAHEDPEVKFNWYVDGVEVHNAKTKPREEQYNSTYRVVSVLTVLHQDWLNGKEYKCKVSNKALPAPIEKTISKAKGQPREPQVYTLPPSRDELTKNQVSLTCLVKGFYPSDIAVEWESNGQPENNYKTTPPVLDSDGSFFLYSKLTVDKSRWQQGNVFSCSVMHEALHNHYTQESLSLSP
light: B1 light
notes: mutation in both H chains; also called Ho Ab S267_02A; S267A
B14: GpH7-A5/GpH7-B3 variant S324_08L/GpL16-k0 (He Ab) (antibody, human IgG1, kappa)
heavy 1: not shown
heavy 2: not shown
light: B1 light
notes: as for B2
B15: GpH7-A5/GpH7-B3 variant Q295_07I/GpL16-k0 (He Ab) (antibody, human IgG1, kappa)
heavy 1: not shown
heavy 2: not shown
light: B1 light
notes: as for B2
B16: GpH7-B3 variant S267_08L/GpL16-k0 (antibody, human IgG1, kappa)
heavy: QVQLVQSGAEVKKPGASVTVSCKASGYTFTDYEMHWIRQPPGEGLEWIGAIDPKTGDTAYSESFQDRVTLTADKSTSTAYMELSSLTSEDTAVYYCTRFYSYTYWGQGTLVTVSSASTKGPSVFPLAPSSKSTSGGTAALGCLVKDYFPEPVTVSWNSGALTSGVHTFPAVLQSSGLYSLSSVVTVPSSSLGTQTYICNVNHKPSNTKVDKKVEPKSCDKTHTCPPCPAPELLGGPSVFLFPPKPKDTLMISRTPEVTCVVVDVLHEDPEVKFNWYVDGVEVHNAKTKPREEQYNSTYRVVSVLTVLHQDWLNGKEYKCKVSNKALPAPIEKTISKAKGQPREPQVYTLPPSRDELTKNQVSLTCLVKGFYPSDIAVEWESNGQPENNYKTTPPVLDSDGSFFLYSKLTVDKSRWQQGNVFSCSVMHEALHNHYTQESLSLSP
light: B1 light
notes: mutation in both H chains; also called Ho Ab S267_08L; S267L
B17: GpH7-B3 variant S239_18N/GpL16-k0 (antibody, human IgG1, kappa)
heavy: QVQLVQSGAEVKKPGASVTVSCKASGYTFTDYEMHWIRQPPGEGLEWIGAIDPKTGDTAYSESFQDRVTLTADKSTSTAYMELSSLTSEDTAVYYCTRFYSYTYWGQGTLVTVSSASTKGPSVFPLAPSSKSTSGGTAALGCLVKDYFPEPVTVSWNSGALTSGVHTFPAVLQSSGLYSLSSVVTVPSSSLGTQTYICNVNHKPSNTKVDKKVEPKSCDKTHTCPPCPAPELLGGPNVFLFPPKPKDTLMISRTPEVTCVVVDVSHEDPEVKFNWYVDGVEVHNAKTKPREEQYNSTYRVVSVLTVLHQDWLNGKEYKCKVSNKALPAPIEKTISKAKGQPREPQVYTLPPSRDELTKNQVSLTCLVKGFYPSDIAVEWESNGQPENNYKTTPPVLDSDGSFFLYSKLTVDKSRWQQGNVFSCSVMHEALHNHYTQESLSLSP
light: B1 light
notes: mutation in both H chains; also called Ho Ab S239_18N; S239N
B18: GpH7-A5/GpH7-B3 variant S298_16H/GpL16-k0 (He Ab) (antibody, human IgG1, kappa)
heavy 1: not shown
heavy 2: not shown
light: B1 light
notes: as for B2
B19: GpH7-A5/GpH7-B3 variant S324_14T/GpL16-k0 (He Ab) (antibody, human IgG1, kappa)
heavy 1: not shown
heavy 2: not shown
light: B1 light
notes: as for B2
B20: GpH7-A5/GpH7-B3 variant S298_14T/GpL16-k0 (He Ab) (antibody, human IgG1, kappa)
heavy 1: not shown
heavy 2: not shown
light: B1 light
notes: as for B2
B21: GpH7-B3 variant S239_14T/GpL16-k0 (antibody, human IgG1, kappa)
heavy: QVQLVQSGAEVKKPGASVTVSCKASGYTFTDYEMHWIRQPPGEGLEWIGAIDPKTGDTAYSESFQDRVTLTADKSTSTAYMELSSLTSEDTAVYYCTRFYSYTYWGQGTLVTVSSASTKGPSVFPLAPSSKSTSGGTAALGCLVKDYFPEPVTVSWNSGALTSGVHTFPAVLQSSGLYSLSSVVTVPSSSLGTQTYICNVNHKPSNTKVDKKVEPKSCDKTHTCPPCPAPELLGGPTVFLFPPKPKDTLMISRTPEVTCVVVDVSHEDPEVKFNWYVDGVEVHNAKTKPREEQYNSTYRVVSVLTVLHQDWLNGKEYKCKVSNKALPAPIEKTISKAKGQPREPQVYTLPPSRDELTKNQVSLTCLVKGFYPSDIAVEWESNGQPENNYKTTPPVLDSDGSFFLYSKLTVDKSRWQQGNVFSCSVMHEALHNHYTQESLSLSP
light: B1 light
notes: mutation in both H chains; also called Ho Ab S239_14T; S239T
B22: GpH7-B3 variant S267_16H/GpL16-k0 (antibody, human IgG1, kappa)
heavy: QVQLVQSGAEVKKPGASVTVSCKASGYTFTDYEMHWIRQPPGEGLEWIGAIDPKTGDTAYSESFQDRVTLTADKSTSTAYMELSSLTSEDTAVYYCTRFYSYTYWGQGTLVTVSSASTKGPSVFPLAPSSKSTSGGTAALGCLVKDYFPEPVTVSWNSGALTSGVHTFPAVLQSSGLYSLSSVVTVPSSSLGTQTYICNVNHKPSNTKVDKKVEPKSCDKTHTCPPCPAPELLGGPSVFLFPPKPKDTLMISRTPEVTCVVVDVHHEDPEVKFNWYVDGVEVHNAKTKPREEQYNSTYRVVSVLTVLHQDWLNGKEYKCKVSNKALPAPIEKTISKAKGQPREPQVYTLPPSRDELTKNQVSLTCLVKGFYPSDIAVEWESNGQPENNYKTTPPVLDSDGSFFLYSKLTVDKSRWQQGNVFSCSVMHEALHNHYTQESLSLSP
light: B1 light
notes: mutation in both H chains; also called Ho Ab S267_16H; S267H
B23: GpH7-A5/GpH7-B3 variant P271_12R/GpL16-k0 (He Ab) (antibody, human IgG1, kappa)
heavy 1: not shown
heavy 2: not shown
light: B1 light
notes: as for B2
B24: GpH7-A5/GpH7-B3 variant S298_08L/GpL16-k0 (He Ab) (antibody, human IgG1, kappa)
heavy 1: not shown
heavy 2: not shown
light: B1 light
notes: as for B2
B25: GpH7-A5/GpH7-B3 variant Q295_03V/GpL16-k0 (He Ab) (antibody, human IgG1, kappa)
heavy 1: not shown
heavy 2: not shown
light: B1 light
notes: as for B2
B26: GpH7-A5/GpH7-B3 variant P271_06M/GpL16-k0 (He Ab) (antibody, human IgG1, kappa)
heavy 1: not shown
heavy 2: not shown
light: B1 light
notes: as for B2
B27: GpH7-A5/GpH7-B3 variant Q295_04F/GpL16-k0 (He Ab) (antibody, human IgG1, kappa)
heavy 1: not shown
heavy 2: not shown
light: B1 light
notes: as for B2
B28: GpH7-A5/GpH7-B3 variant S298_07I/GpL16-k0 (He Ab) (antibody, human IgG1, kappa)
heavy 1: not shown
heavy 2: not shown
light: B1 light
notes: as for B2
B29: GpH7-A5/GpH7-B3 variant Q295_18N/GpL16-k0 (He Ab) (antibody, human IgG1, kappa)
heavy 1: not shown
heavy 2: not shown
light: B1 light
notes: as for B2

What was measured:
[1] = biological target: T1, FcγRIa extracellular domain with C-terminal His tag (human, UniProt P12314 16-292); assay: SPR Biacore, relative FcγRIa binding vs GpH7-B3/GpL16-k0
T1 construct: extracellular domain; also called FcgRI; CD64; not shown: His tag at the C terminus
T1 sequence (P12314 16-292): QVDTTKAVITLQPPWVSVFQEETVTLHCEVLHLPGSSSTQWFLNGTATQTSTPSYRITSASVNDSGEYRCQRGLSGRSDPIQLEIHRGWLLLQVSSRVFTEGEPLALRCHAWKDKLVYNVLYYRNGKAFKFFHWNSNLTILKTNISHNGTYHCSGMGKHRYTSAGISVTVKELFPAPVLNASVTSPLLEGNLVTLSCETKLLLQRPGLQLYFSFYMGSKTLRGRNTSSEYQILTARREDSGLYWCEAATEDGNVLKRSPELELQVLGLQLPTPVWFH

[2] = biological target: T2, FcγRIa extracellular domain with C-terminal His tag (human, UniProt P12314 16-292); assay: SPR Biacore, antibody captured, FcγRIa analyte; vs GpH7-A5/GpH7-B3/GpL16-k0 = 100
T2 construct: extracellular domain; Expressed in FreeStyle293 cells; analyte in Biacore; also called FcgRI; FcgRIa
T2 sequence (P12314 16-292): as above

Row | Binder | Ho/Con_1a [1] | He/Con_1a [2]
1 | B1 | 90.4 % of HoCon Ab (=100) | –
2 | B2 | – | 110 relative (control = 100)
3 | B3 | – | 103 relative (control = 100)
4 | B4 | 103 % of HoCon Ab (=100) | –
5 | B5 | 106 % of HoCon Ab (=100) | –
6 | B6 | – | 103 relative (control = 100)
7 | B7 | 93.4 % of HoCon Ab (=100) | –
8 | B8 | – | 103 relative (control = 100)
9 | B9 | – | 102 relative (control = 100)
10 | B10 | – | 101 relative (control = 100)
11 | B11 | – | 106 relative (control = 100)
12 | B12 | 106 % of HoCon Ab (=100) | –
13 | B13 | 108 % of HoCon Ab (=100) | –
14 | B14 | – | 103 relative (control = 100)
15 | B15 | – | 103 relative (control = 100)
16 | B16 | 99.9 % of HoCon Ab (=100) | –
17 | B17 | 97.9 % of HoCon Ab (=100) | –
18 | B18 | – | 109 relative (control = 100)
19 | B19 | – | 121 relative (control = 100)
20 | B20 | – | 107 relative (control = 100)
21 | B21 | 101 % of HoCon Ab (=100) | –
22 | B22 | 98.2 % of HoCon Ab (=100) | –
23 | B23 | – | 102 relative (control = 100)
24 | B24 | – | 107 relative (control = 100)
25 | B25 | – | 104 relative (control = 100)
26 | B26 | – | 102 relative (control = 100)
27 | B27 | – | 102 relative (control = 100)
28 | B28 | – | 107 relative (control = 100)
29 | B29 | – | 102 relative (control = 100)
